B1: E3 ubiquitin-protein ligase TRIM36, residues 208 to 252; numbered along this chain, Q9NQ86 (parent)
chain: KILMCPEHETERINMYCELCRRPVCHLCKLGGNHANHRVTTMSSA

± gives the uncertainty stated by the source.

Variants of B1 are the subject of the data set. The data set is described as follows: abundance fitness (aPCA) (normalised: wild type 0, dead -1); higher = more abundant; growth selection in yeast, the domain comes from the species named. The conditions noted are these: Homo sapiens.
Turning to KIMMCPEHETERINMYCELCRRPVCHLCKLGGNHANHRVTTMSSA [L3M], the abundance fitness was 0.092 ± 0.056.
To KITMCPEHETERINMYCELCRRPVCHLCKLGGNHANHRVTTMSSA [L3T] belongs 0.036 ± 0.058.
To KINMCPEHETERINMYCELCRRPVCHLCKLGGNHANHRVTTMSSA [L3N] belongs -0.013 ± 0.1; to KIYMCPEHETERINMYCELCRRPVCHLCKLGGNHANHRVTTMSSA [L3Y], -0.008 ± 0.092.
To KIKMCPEHETERINMYCELCRRPVCHLCKLGGNHANHRVTTMSSA [L3K] belongs 0.006 ± 0.058; to KIFMCPEHETERINMYCELCRRPVCHLCKLGGNHANHRVTTMSSA [L3F], -0.04 ± 0.19.
Regarding KIPMCPEHETERINMYCELCRRPVCHLCKLGGNHANHRVTTMSSA [L3P], the abundance fitness is -0.128 ± 0.058.
To KIHMCPEHETERINMYCELCRRPVCHLCKLGGNHANHRVTTMSSA [L3H] belongs -0.131 ± 0.078.
Regarding KICMCPEHETERINMYCELCRRPVCHLCKLGGNHANHRVTTMSSA [L3C], the abundance fitness was -0.055 ± 0.057.
To KIGMCPEHETERINMYCELCRRPVCHLCKLGGNHANHRVTTMSSA [L3G] belongs -0.016 ± 0.045; to KIRMCPEHETERINMYCELCRRPVCHLCKLGGNHANHRVTTMSSA [L3R], -0.114 ± 0.042.
For the variant KIAMCPEHETERINMYCELCRRPVCHLCKLGGNHANHRVTTMSSA [L3A], the abundance fitness was -0.001 ± 0.048.
To KIVMCPEHETERINMYCELCRRPVCHLCKLGGNHANHRVTTMSSA [L3V] belongs -0.037 ± 0.05.
To KIEMCPEHETERINMYCELCRRPVCHLCKLGGNHANHRVTTMSSA [L3E] belongs 0.163 ± 0.052; to KISMCPEHETERINMYCELCRRPVCHLCKLGGNHANHRVTTMSSA [L3S], -0.007 ± 0.048; to KIDMCPEHETERINMYCELCRRPVCHLCKLGGNHANHRVTTMSSA [L3D], 0.07 ± 0.059.
In the case of KIWMCPEHETERINMYCELCRRPVCHLCKLGGNHANHRVTTMSSA [L3W], the abundance fitness is -0.254 ± 0.053.
KIIMCPEHETERINMYCELCRRPVCHLCKLGGNHANHRVTTMSSA [L3I]: the abundance fitness was 0.061 ± 0.079.
To KKLMCPEHETERINMYCELCRRPVCHLCKLGGNHANHRVTTMSSA [I2K] belongs -0.234 ± 0.073.
To KTLMCPEHETERINMYCELCRRPVCHLCKLGGNHANHRVTTMSSA [I2T] belongs -0.097 ± 0.056; to KYLMCPEHETERINMYCELCRRPVCHLCKLGGNHANHRVTTMSSA [I2Y], -0.532 ± 0.29.
In the case of KRLMCPEHETERINMYCELCRRPVCHLCKLGGNHANHRVTTMSSA [I2R], the abundance fitness is -0.243 ± 0.055.
To KELMCPEHETERINMYCELCRRPVCHLCKLGGNHANHRVTTMSSA [I2E] belongs -0.042 ± 0.049.
To KNLMCPEHETERINMYCELCRRPVCHLCKLGGNHANHRVTTMSSA [I2N] belongs 0.011 ± 0.067.
To KMLMCPEHETERINMYCELCRRPVCHLCKLGGNHANHRVTTMSSA [I2M] belongs -0.068 ± 0.062; to KFLMCPEHETERINMYCELCRRPVCHLCKLGGNHANHRVTTMSSA [I2F], -0.001 ± 0.12.
KSLMCPEHETERINMYCELCRRPVCHLCKLGGNHANHRVTTMSSA [I2S]: the abundance fitness was -0.19 ± 0.066.
To KPLMCPEHETERINMYCELCRRPVCHLCKLGGNHANHRVTTMSSA [I2P] belongs -0.386 ± 0.068; to KGLMCPEHETERINMYCELCRRPVCHLCKLGGNHANHRVTTMSSA [I2G], -0.115 ± 0.048; to KHLMCPEHETERINMYCELCRRPVCHLCKLGGNHANHRVTTMSSA [I2H], -0.139 ± 0.06.
To KVLMCPEHETERINMYCELCRRPVCHLCKLGGNHANHRVTTMSSA [I2V] belongs -0.157 ± 0.066; to KWLMCPEHETERINMYCELCRRPVCHLCKLGGNHANHRVTTMSSA [I2W], -0.405 ± 0.062; to KCLMCPEHETERINMYCELCRRPVCHLCKLGGNHANHRVTTMSSA [I2C], -0.345 ± 0.11.
Consider KDLMCPEHETERINMYCELCRRPVCHLCKLGGNHANHRVTTMSSA [I2D], for which the abundance fitness came to 0.012 ± 0.077.
To KLLMCPEHETERINMYCELCRRPVCHLCKLGGNHANHRVTTMSSA [I2L] belongs -0.083 ± 0.059; to KALMCPEHETERINMYCELCRRPVCHLCKLGGNHANHRVTTMSSA [I2A], -0.165 ± 0.047.
To KILMKPEHETERINMYCELCRRPVCHLCKLGGNHANHRVTTMSSA [C5K] belongs -0.688 ± 0.074; to KILMHPEHETERINMYCELCRRPVCHLCKLGGNHANHRVTTMSSA [C5H], -0.873 ± 0.097; to KILMGPEHETERINMYCELCRRPVCHLCKLGGNHANHRVTTMSSA [C5G], -0.744 ± 0.052.
Regarding KILMLPEHETERINMYCELCRRPVCHLCKLGGNHANHRVTTMSSA [C5L], the abundance fitness is -0.929 ± 0.064.
To KILMDPEHETERINMYCELCRRPVCHLCKLGGNHANHRVTTMSSA [C5D] belongs -0.536 ± 0.092; to KILMFPEHETERINMYCELCRRPVCHLCKLGGNHANHRVTTMSSA [C5F], -1.08 ± 0.16; to KILMAPEHETERINMYCELCRRPVCHLCKLGGNHANHRVTTMSSA [C5A], -0.82 ± 0.062.
To KILMEPEHETERINMYCELCRRPVCHLCKLGGNHANHRVTTMSSA [C5E] belongs -0.655 ± 0.093; to KILMIPEHETERINMYCELCRRPVCHLCKLGGNHANHRVTTMSSA [C5I], -1.14 ± 0.11; to KILYCPEHETERINMYCELCRRPVCHLCKLGGNHANHRVTTMSSA [M4Y], 0.031 ± 0.055.
To KILICPEHETERINMYCELCRRPVCHLCKLGGNHANHRVTTMSSA [M4I] belongs -0.063 ± 0.081.
As to KILCCPEHETERINMYCELCRRPVCHLCKLGGNHANHRVTTMSSA [M4C], the abundance fitness was -0.075 ± 0.076.
To KILDCPEHETERINMYCELCRRPVCHLCKLGGNHANHRVTTMSSA [M4D] belongs -0.189 ± 0.058; to KILVCPEHETERINMYCELCRRPVCHLCKLGGNHANHRVTTMSSA [M4V], -0.077 ± 0.065; to KILECPEHETERINMYCELCRRPVCHLCKLGGNHANHRVTTMSSA [M4E], -0.173 ± 0.061.
To KILKCPEHETERINMYCELCRRPVCHLCKLGGNHANHRVTTMSSA [M4K] belongs -0.054 ± 0.057.
As for KILPCPEHETERINMYCELCRRPVCHLCKLGGNHANHRVTTMSSA [M4P], the abundance fitness was -0.288 ± 0.056.
To KILNCPEHETERINMYCELCRRPVCHLCKLGGNHANHRVTTMSSA [M4N] belongs -0.101 ± 0.13.

These data come from the Human Domainome abundance scans (Beltran et al. 2025).
